B1: Pitx1-25 (dsDNA)
DNA 1: GGCAGTCTTCTAATTAGTAGTCGGC
DNA 2: GCCGACTACTAATTAGAAGACTGCC
B2: DUX4(half) (dsDNA)
DNA 1: GGCAGTCCAGCGTAATCAAGTCGGC
DNA 2: GCCGACTTGATTACGCTGGACTGCC
B3: SELEX4 (dsDNA)
DNA 1: GGCAGTCTAATGTTTTATAGTCGGC
DNA 2: GCCGACTATAAAACATTAGACTGCC
B4: MALR (dsDNA)
DNA 1: GGCAGTCTAATTGAATCAAGTCGGC
DNA 2: GCCGACTTGATTCAATTAGACTGCC
B5: SELEX2 (dsDNA)
DNA 1: GGCAGTCTAATTCAATCCAGTCGGC
DNA 2: GCCGACTGGATTGAATTAGACTGCC
B6: DUX4(CC) (dsDNA)
DNA 1: GGCAGTCTAATCCAATCAAGTCGGC
DNA 2: GCCGACTTGATTGGATTAGACTGCC
B7: DUX4(TC) (dsDNA)
DNA 1: GGCAGTCTAATTCAATCAAGTCGGC
DNA 2: GCCGACTTGATTGAATTAGACTGCC
B8: DUX4(mut) (dsDNA)
DNA 1: GGCAGTCGTGAATAATCAAGTCGGC
DNA 2: GCCGACTTGATTATTCACGACTGCC
B9: DUX4(TT) (dsDNA)
DNA 1: GGCAGTCTAATTTAATCAAGTCGGC
DNA 2: GCCGACTTGATTAAATTAGACTGCC

T1 sequence (Q9UBX2 19-152): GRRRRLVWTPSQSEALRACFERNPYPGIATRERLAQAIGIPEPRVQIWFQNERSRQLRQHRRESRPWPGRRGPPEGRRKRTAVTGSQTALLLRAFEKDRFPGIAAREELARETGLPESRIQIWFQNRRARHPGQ

The first series addresses T1, DUX4 DNA-binding domain (DUX4-HD, both homeodomains) (UniProt Q9UBX2 19-152). Description: EMSA; excess protein; Direct EMSA: 10 uL 100 uM probe + 20 uL 250 uM protein (protein stock in 500 mM NaCl, 20 mM Tris-Cl pH 7.4), 1 h on ice, 3% agarose, EtBr; competition: 10 uL 100 uM competitor, 2 uL 125 uM protein (50% glycerol, 250 mM NaCl, 10 mM Tris-Cl pH 7.4), 2 uL 100 uM FAM-CT, 30 uL total, 1 h on ice. To be noted: protein: recombinant; tags: N-terminal His6 removed by TEV (first construct); His-SUMO fusion (later construct); blunt. For orientation: A gel shift assay detects complexes by their altered migration in electrophoresis.
Turning to B1, the binding result is reported as “no binding”. Regarding B2, the binding result is “no binding”. For B3, the binding result is recorded as “no binding”. As for B4, the binding result is “binds”.

The next series addresses T1, DUX4 DNA-binding domain (DUX4-HD, both …). The series is described as follows: competition; vs FAM-CT; CT competed best; Direct EMSA: 10 uL 100 uM probe + 20 uL 250 uM protein (protein stock in 500 mM NaCl, 20 mM Tris-Cl pH 7.4), 1 h on ice, 3% agarose, EtBr; competition: 10 uL 100 uM competitor, 2 uL 125 uM protein (50% glycerol, 250 mM NaCl, 10 mM Tris-Cl pH 7.4), 2 uL 100 uM FAM-CT, 30 uL total, 1 h on ice. To be noted: protein: recombinant; tags: N-terminal His6 removed by TEV (first construct); His-SUMO fusion (later construct); blunt.
As to B5, the binding result was “binds”.

For another series the target is unchanged. The series is described as follows: competition; vs FAM-CT; Direct EMSA: 10 uL 100 uM probe + 20 uL 250 uM protein (protein stock in 500 mM NaCl, 20 mM Tris-Cl pH 7.4), 1 h on ice, 3% agarose, EtBr; competition: 10 uL 100 uM competitor, 2 uL 125 uM protein (50% glycerol, 250 mM NaCl, 10 mM Tris-Cl pH 7.4), 2 uL 100 uM FAM-CT, 30 uL total, 1 h on ice. Particulars: protein: recombinant; tags: N-terminal His6 removed by TEV (first construct); His-SUMO fusion (later construct); blunt.
B6: the binding result is “binds”. B7: the binding result is recorded as “binds”.

With B8, the binding result is on record as “no binding”. As for B9, the binding result was “binds”.

The record behind these values is publication PMC4730607, “DNA-binding sequence specificity of DUX4”.
